The values that follow come from US20040018971A1 (published 2004).

The target of assay [1] is T1, HLA-A*0201 (human).
T1 construct: also called HLA-A2.1
The experiment in a line: inhibition of 125I-labelled standard peptide binding to purified HLA, gel filtration; ratio = IC50 of standard / IC50 of test peptide. A general note: Size exclusion chromatography separates by hydrodynamic size, large species first.

In assay [2] the target is T2, HLA-A*0201 (human).
T2 construct: also called HLA-A2.1; A2.1
The experiment in a line: competitive inhibition of 125I-labeled probe peptide binding to purified HLA-A*0201.

As to SLTEILKGGV (also called Her2/neu.144) [HER2/neu peptide, position 144, 10 amino acids], the relative binding ratio with HLA-A*0201 [1] was 0.015 ratio to standard peptide.

Usually IC50 stands for the concentration that inhibits the measured activity by half. Turning to SLTEILKGGV [Her2/neu.144], the IC50 in the assay with HLA-A*0201 [2] is at most 500 nM. In the case of SLTLQGLGI [HER2/neu peptide, position 442, 9 amino acids], the relative binding ratio with HLA-A*0201 [1] is 0.0003 ratio to standard peptide.
